This is an account of results in article PMC7376121, “In-Lipid Structure of Pressure-Sensitive Domains Hints Mechanosensitive Channel Functional Diversity” (Biophysical Journal, 2020).

The data set concerns the molecule itself. The data set is described as follows: PELDOR/DEER; spin-labelled single-cysteine channel in DDM detergent solution (50 mM sodium phosphate pH 7.5, 300 mM NaCl, 0.05% DDM), diluted 1:1 with deuterated ethylene glycol, flash frozen; Q band, 50 K; distances between the labels of the subunits of one channel.

B1: Mycobacterium tuberculosis MscL Y87C, MTSSL spin-labelled (TbMscL Y87R1) (natural protein)
chain: MLKGFKEFLARGNIVDLAVAVVIGTAFTALVTKFTDSIITPLINRIGVNAQSDVGILRIGIGGGQTIDLNVLLSAAINFFLIAFAVCFLVVLPYNTLRKKGEVEQPGDTQVVLLTEIRDLLAQTNGDSPGRHGGRGTPSPTDGPRASTESQ
modifications: MTSSL spin label on the cysteine at 87 (R1)
notes: also called TbY87R1
Consider B1, for which the stoichiometry N – broadly, a count of units in the complex or per binding partner – was 5.

B2: Mycobacterium tuberculosis MscL F88C, MTSSL spin-labelled (TbMscL F88R1) (natural protein)
chain: MLKGFKEFLARGNIVDLAVAVVIGTAFTALVTKFTDSIITPLINRIGVNAQSDVGILRIGIGGGQTIDLNVLLSAAINFFLIAFAVYCLVVLPYNTLRKKGEVEQPGDTQVVLLTEIRDLLAQTNGDSPGRHGGRGTPSPTDGPRASTESQ
modifications: MTSSL spin label on the cysteine at 88 (R1)
notes: also called TbF88R1
For B2, the “stoichiometry N” value came to 5.

B3: Mycobacterium tuberculosis MscL L89C, MTSSL spin-labelled (TbMscL L89R1) (natural protein)
chain: MLKGFKEFLARGNIVDLAVAVVIGTAFTALVTKFTDSIITPLINRIGVNAQSDVGILRIGIGGGQTIDLNVLLSAAINFFLIAFAVYFCVVLPYNTLRKKGEVEQPGDTQVVLLTEIRDLLAQTNGDSPGRHGGRGTPSPTDGPRASTESQ
modifications: MTSSL spin label on the cysteine at 89 (R1)
notes: also called TbL89R1
As to B3, the “stoichiometry N” value was determined as 5.
